Results on one substance are retold here after article PMC2100151.

The term stoichiometry N denotes the number of molecules, sites or subunits per partner or assembly.

The target of this experiment is Human ASK1 catalytic (kinase) domain, T813A mutant (human) (UniProt Q99683). The experiment in a line: AUC; sedimentation velocity; 13 μM protein in 10 mM HEPES pH 7.4, 120 mM NaCl, 0.25% glycerol, 4°C, 40,000 rpm; c(s) and c(M) distributions (SEDFIT).

The substance “Human ASK1 catalytic (kinase) domain, T813A mutant (from UniProt Q99683 659-951) (domain or fragment)” came in with a stoichiometry N of 2.
